# T1: CM8
# T1 chain: MVASALTASG
# T2: CM5
# T2 chain: MVLSAPTASG
# T3: CM6
# T3 chain: MVPSAVTASG
# T4: CM10
# T4 chain: MVPSALTVSG
# T5: CM7
# T5 chain: MVPSAYTASG
# T6: CM9
# T6 chain: MVVSALTASG
# T7: CM2
# T7 chain: MVLSAVTASG
# B1: recombinant human MMP9 (protein)
# chain: MRTPRCGVPDLGRFQTFEGDLKWHHHNITYWIQNYSEDLPRAVIDDAFARAFALWSAVTPLTFTRVYSRDADIVIQFGVAEHGDGYPFDGKDGLLAHAFPPGPGIQGDAHFDDDELWSLGKGVVVPTRFGNADGAACHFPFIFEGRSYSACTTDGRSDGLPWCSTTANYDTDDRFGFCPSERLYTQDGNADGKPCQFPFIFQGQSYSACTTDGRSDGYRWCATTANYDRDKLFGFCPTRADSTVMGGNSAGELCVFPFTFLGKEYSTCTSEGRGDGRLWCATTSNFDSDKKWGFCPDQGYSLFLVAAHEFGHALGLDHSSVPEALMYPMYRFTEGPPLHKDDVNGIRHLYGPRPEPEPRPPTTTTPQPTAPPTVCPTGPPTVHPSERPTAGPTGPPSAGPTGPPTAGPSTATTVPLSPVDDACNVNIFDAIAEIGNQLYLFKDGKYWRFSEGRGSRPQGPFLIADKWPALPRKLDSVFEERLSKKLFFFSGRQVWVYTGASVLGPRRLDKLGLGADVAQVTGALRSGRGKMLLFSGRRLWRFDVKAQMVDPRSASEVDRMFPGVPLDTHDVFQYREKAYFCQDRFYWRVSSRSELNQVDQVGYVTYDILQCPED
# B2: recombinant human MMP2 (protein)
# chain: YNFFPRKPKWDKNQITYRIIGYTPDLDPETVDDAFARAFQVWSDVTPLRFSRIHDGEADIMINFGRWEHGDGYPFDGKDGLLAHAFAPGTGVGGDSHFDDDELWTLGEGQVVRVKYGNADGEYCKFPFLFNGKEYNSCTDTGRSDGFLWCSTTYNFEKDGKYGFCPHEALFTMGGNAEGQPCKFPFRFQGTSYDSCTTEGRTDGYRWCGTTEDYDRDKKYGFCPETAMSTVGGNSEGAPCVFPFTFLGNKYESCTSAGRSDGKMWCATTANYDDDRKWGFCPDQGYSLFLVAAHEFGHAMGLEHSQDPGALMAPIYTYTKNFRLSQDDIKGIQELYGASPDIDLGTGPTPTLGPVTPEICKQDIVFDGIAQIRGEIFFFKDRFIWRTVTPRDKPMGPLLVATFWPELPEKIDAVYEAPQEEKAVFFAGNEYWIYSASTLERGYPKPLTSLGLPPDVQRVDAAFNWSKNKKTYIFAGDKFWRYNEVKKKMDPGFPKLIADAWNAIPDNLDAVVDLQGGGHSYFFKGAYYLKLENQSLKSVKFGSIKSDWLGC
# Experiments:
# CM8 = molecular target: T1, CM8
# CM5 = molecular target: T2, CM5
# CM6 = molecular target: T3, CM6
# CM10 = molecular target: T4, CM10
# CM7 = molecular target: T5, CM7
# CM9 = molecular target: T6, CM9
# CM2 = molecular target: T7, CM2
# SB1902-C2, sequence (chain, as listed by the source, chain 1 of 2): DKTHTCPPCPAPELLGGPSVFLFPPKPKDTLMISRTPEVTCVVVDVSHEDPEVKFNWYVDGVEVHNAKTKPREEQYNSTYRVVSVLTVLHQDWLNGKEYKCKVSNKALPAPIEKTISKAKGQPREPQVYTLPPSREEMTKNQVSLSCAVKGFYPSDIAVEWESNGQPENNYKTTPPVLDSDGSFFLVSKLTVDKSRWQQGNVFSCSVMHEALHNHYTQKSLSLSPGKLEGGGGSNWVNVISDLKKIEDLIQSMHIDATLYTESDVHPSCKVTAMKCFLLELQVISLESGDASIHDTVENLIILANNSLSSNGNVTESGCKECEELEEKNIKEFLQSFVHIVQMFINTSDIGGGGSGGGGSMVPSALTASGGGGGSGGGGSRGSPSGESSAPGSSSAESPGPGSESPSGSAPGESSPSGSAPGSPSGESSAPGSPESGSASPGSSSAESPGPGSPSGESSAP
# SB1902-C2, sequence (chain, as listed by the source, chain 2 of 2): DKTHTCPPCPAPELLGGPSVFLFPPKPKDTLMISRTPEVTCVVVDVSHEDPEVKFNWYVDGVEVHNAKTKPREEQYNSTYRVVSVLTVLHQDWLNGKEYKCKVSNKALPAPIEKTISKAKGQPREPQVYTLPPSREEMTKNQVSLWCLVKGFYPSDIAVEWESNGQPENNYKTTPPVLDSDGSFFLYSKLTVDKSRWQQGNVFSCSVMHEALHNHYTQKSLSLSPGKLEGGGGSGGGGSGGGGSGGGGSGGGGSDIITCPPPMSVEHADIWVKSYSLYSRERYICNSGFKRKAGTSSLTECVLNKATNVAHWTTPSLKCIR
# SB1902-C5, sequence (chain, as listed by the source, chain 1 of 2): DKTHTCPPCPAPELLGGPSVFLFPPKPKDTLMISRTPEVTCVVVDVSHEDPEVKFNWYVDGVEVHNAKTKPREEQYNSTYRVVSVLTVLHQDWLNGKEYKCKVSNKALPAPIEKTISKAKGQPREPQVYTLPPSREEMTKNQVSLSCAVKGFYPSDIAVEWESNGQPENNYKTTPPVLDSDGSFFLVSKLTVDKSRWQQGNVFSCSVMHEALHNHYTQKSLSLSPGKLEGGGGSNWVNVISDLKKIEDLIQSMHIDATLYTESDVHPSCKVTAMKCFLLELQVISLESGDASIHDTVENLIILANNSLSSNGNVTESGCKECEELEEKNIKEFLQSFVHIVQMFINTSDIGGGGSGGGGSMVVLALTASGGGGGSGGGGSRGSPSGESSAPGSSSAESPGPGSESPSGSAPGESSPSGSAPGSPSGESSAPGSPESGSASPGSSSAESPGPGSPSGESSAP
# SB1902-C5, sequence (chain, as listed by the source, chain 2 of 2): as the sequence (chain, as listed by the source, chain 2 of 2) above
# SB1902-C4, sequence (chain, as listed by the source, chain 1 of 2): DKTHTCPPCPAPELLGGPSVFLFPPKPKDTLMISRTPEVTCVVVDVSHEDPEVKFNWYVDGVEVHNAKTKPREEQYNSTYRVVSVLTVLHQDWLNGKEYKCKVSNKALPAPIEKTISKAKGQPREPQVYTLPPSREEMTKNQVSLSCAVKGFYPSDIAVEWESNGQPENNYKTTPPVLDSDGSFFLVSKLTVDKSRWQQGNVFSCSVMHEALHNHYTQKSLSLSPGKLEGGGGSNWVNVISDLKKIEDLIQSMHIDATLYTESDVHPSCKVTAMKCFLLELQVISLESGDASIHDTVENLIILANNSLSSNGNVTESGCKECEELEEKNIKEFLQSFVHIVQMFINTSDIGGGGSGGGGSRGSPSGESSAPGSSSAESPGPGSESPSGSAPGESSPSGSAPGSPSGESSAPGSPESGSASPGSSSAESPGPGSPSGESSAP
# SB1902-C4, sequence (chain, as listed by the source, chain 2 of 2): as the sequence (chain, as listed by the source, chain 2 of 2) above
protein,measurement,setting,value
B1,in vitro protease digestion (data not shown),CM8,"The other cleavable moieties (such as CM2, CM5-CM10) was also cleavable in vitro by both MMP2 and MMP9 (data not shown)"
same,"in vitro protease digestion, polyacrylamide gel",SB1902-C4,the non-cleavable G4S linker in SB1902-C4 was resistant to both MMP2 and MMP9 enzyme digestion
same,in vitro protease digestion (data not shown),CM5,"The other cleavable moieties (such as CM2, CM5-CM10) was also cleavable in vitro by both MMP2 and MMP9 (data not shown)"
same,in vitro protease digestion (data not shown),CM6,"The other cleavable moieties (such as CM2, CM5-CM10) was also cleavable in vitro by both MMP2 and MMP9 (data not shown)"
same,in vitro protease digestion (data not shown),CM10,"The other cleavable moieties (such as CM2, CM5-CM10) was also cleavable in vitro by both MMP2 and MMP9 (data not shown)"
same,"in vitro protease digestion, polyacrylamide gel",SB1902-C5,"The mutated substrate CM4 was cleavable in vitro by both MMP2 and MMP9 enzymes, with an enzyme dose-dependent manner"
same,"in vitro protease digestion, polyacrylamide gel",SB1902-C2,"The mutated substrate CM1 was cleavable in vitro by both MMP2 and MMP9 enzymes, with an enzyme dose-dependent manner"
same,in vitro protease digestion (data not shown),CM7,"The other cleavable moieties (such as CM2, CM5-CM10) was also cleavable in vitro by both MMP2 and MMP9 (data not shown)"
same,in vitro protease digestion (data not shown),CM9,"The other cleavable moieties (such as CM2, CM5-CM10) was also cleavable in vitro by both MMP2 and MMP9 (data not shown)"
same,in vitro protease digestion (data not shown),CM2,"The other cleavable moieties (such as CM2, CM5-CM10) was also cleavable in vitro by both MMP2 and MMP9 (data not shown)"
B2,in vitro protease digestion (data not shown),CM8,"The other cleavable moieties (such as CM2, CM5-CM10) was also cleavable in vitro by both MMP2 and MMP9 (data not shown)"
same,"in vitro protease digestion, polyacrylamide gel",SB1902-C4,the non-cleavable G4S linker in SB1902-C4 was resistant to both MMP2 and MMP9 enzyme digestion
same,in vitro protease digestion (data not shown),CM5,"The other cleavable moieties (such as CM2, CM5-CM10) was also cleavable in vitro by both MMP2 and MMP9 (data not shown)"
same,in vitro protease digestion (data not shown),CM6,"The other cleavable moieties (such as CM2, CM5-CM10) was also cleavable in vitro by both MMP2 and MMP9 (data not shown)"
same,in vitro protease digestion (data not shown),CM10,"The other cleavable moieties (such as CM2, CM5-CM10) was also cleavable in vitro by both MMP2 and MMP9 (data not shown)"
same,"in vitro protease digestion, polyacrylamide gel",SB1902-C5,"The mutated substrate CM4 was cleavable in vitro by both MMP2 and MMP9 enzymes, with an enzyme dose-dependent manner"
same,"digestion efficiency by SDS-PAGE (1 µg activated MMP2, 250 µg prodrug, 37° C., 5 hrs)",SB1902-C2,about 90% of the prodrug SB1902-C2 was digested
same,"in vitro protease digestion, polyacrylamide gel",SB1902-C2,"The mutated substrate CM1 was cleavable in vitro by both MMP2 and MMP9 enzymes, with an enzyme dose-dependent manner"
same,in vitro protease digestion (data not shown),CM7,"The other cleavable moieties (such as CM2, CM5-CM10) was also cleavable in vitro by both MMP2 and MMP9 (data not shown)"
same,in vitro protease digestion (data not shown),CM9,"The other cleavable moieties (such as CM2, CM5-CM10) was also cleavable in vitro by both MMP2 and MMP9 (data not shown)"
same,in vitro protease digestion (data not shown),CM2,"The other cleavable moieties (such as CM2, CM5-CM10) was also cleavable in vitro by both MMP2 and MMP9 (data not shown)"
